Positions count from the first letter of the chain named. Ends that are not written are not given here.
What was measured:
[1] = biological target: T1, ADDomer with one cysteine mutation A477C (synthetic penton base protomer based on …); assay: non-reducing SDS-PAGE and blot; biotinylated peptide detected with Alexa488 avidin, ADDomer with a specific antibody and a Cy3 secondary antibody; covalent disulfide
T1 construct: Virus-like particle: 12 pentamers of 5 engineered penton base protomers each; also called Cys-ADDomer; Cys modified ADDomer
T1 chain: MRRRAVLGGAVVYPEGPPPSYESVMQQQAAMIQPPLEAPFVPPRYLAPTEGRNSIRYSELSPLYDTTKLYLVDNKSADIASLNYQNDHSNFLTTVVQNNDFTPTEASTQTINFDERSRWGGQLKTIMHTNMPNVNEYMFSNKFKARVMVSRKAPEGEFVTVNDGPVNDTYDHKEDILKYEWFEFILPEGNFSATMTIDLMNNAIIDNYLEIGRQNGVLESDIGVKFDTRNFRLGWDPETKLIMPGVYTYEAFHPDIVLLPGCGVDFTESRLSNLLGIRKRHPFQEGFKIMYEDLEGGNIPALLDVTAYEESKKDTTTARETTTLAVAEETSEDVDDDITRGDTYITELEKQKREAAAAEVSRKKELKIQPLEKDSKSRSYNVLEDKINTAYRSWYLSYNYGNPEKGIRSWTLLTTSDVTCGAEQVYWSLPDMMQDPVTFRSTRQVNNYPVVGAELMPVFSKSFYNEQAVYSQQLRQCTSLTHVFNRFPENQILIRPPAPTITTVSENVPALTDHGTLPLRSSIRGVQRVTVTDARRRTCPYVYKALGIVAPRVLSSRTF
Description: (§1) FIG. 14: Covalent coupling of “STICKER” peptide to ADDomer containing targeted cystein mutations. Wild-type ADDomer (wt) and ADDomer with one cysteine mutation (K363C, Q476C or A477C, respectively) were incubated with STICKER peptides (C20 (SEQ ID NO: 77) and C9 (SEQ ID NO: 75), respectively). SDS-PAGE analysis was performed under reducing (+bMeSH) and non-reducing (−bMeSH) conditions and transferred to a PVDF membrane. ADDomer (dark grey) and STICKER peptide (light grey) were visualized by binding of labelled antibody and Avidin binding, respectively, evidencing STICKER binding to cysteine-mutant ADDomer by specific disulfide bond formation (marked by white circle in lower panel)
(§2) To widen the ADDomer potential, a system enabling the addition of extra epitopes at the ADDomer was developed. Single cysteines were inserted at specific locationd of the ADDomer sequence (either K363C or Q476C or A477C). […] Complexes were run on SDS-PAGE and ADDomer was detected by a specific antibody and a secondary antibody labelled with Cy3 while the biotinylated peptide was detected by Alexa488 labeled avidin. When the right Cys-ADDomer/peptide was used, the presence of peptide was detected at the ADDomer band size (circle in FIG. 14). […]

[2] = biological target: T2, ADDomer with one cysteine mutation Q476C (synthetic penton base protomer based on …); assay: as above
T2 construct: Virus-like particle: 12 pentamers of 5 engineered penton base protomers each; also called Cys-ADDomer; Cys modified ADDomer
T2 chain: T1 chain with Q476C, C477A
Description: as §1, §2

Binder: AKRARLSTCFNPVYPYEDES (also: biotinylated (position not given here), Detected by Alexa488 labelled avidin) [STICKER peptide C9 (fibre protein fragment, Cys at position 9)]
- binding result [1]: binds
- binding result [2]: binds
